Experimental data reported in US20240409617A1.

B1: Ab 38 scFv-Fc (scFv, V domains shown)
VH: QVTLKESGPTLVKPTQTLTLTCTFSGFSLTTSGVSVGWIRQPPGKALEWLALIHWDDDKRYSPSLRSRLTITRDTSKNQVVLTVTDMDPADTGTYYCASFIMTVYAEYFEDWGQGTLVTVSS
VL: EIVLTQSPATLSVSPGERATLSCRASQSVSSNLAWYQQKPGQAPRLLMYDVSTRATGIPARFSGSGSGTEFSLTISSLQSEDFAVYYCQQRGAWPLTFGGGTKVEIK
B2: S1-R3-T1-C4 (Ab_8) scFv-Fc (scFv, V domains shown)
VH: QVQLVQSGAEVKKPGSSVKVSCKASGGTFSSYAISWLRQAPGQGLEWMGWINPNSGGTNYAQKFQGRVTMTRDTSISTAYMELSRLRSDDTAVYYCARGSGGYYLGWGQGTLVTVSS
VL: QPGLTQPPSVSKGLRQTATLTCTGNSNNVGNQGAAWLQQHQGHPPKLLSYMNNNRPPGISERFSASRSGNTASLTITGLQPEDEADYYCSAWDSSLSRWVFGGGTKLSVL
B3: S1-RBD-R3-T1-F5 (Ab2-7) scFv-Fc (scFv, V domains shown)
VH: QVTLKESGPTRVKPTQTLTLTCTFSGFSLSTTGVGVGWIRQPPGKALEWLALIYWNDDKRYSPSLKSRLTITKDTSKNQVVLTMTNMDPVDTATYYCARISGSGYFYPFDIWGQGTTVTVSS
VL: NFMLTQPHSVSESPGKTVTISCTRSSGSIASNYVQWYQQRPGSSPTTVIYEDNQRPSGVPDRFSGSIDSSSNSASLTISGLKAEDEADYYCQSYDSSSLWVFGGGTKLTVL
B4: Ab_13 scFv-Fc (scFv, V domains shown)
VH: QVTLKESGPKLVKPTQTLTLTCTFSGFSLSTSGVGVGWIRQPPGKALEWLALIYWDDDKRYSPSLKSRLTIAKDTSKYQVVLTMTNMDPVDTATYYCARISGSGYFYPFDIWGQGTMVTVSA
VL: NFMLTQPHSVSESPGKTVTISCTRSSGSIASNYVQWYQQRPGSAPTTVIYEDNQRPSGVPDRFSGSIDSSSNSASLTISGLKTEDEADYYCQSYDSSNLWVFGGGTKLTVL
B5: Ab_14 scFv-Fc (scFv, V domains shown)
VH: QVQLQQSGPGLVKPSQTLSLTCAISGDSVSSNSAAWNWIRQSPARGLEWLGRTYYRSRWYNDYAISMKSRITINPDTSKNQFSLQLESVTPEDTAVYYCAREIRGFDYWGQGTLVTVSS
VL: QSVLTQPPSASGSPGQSVTISCTGTSSDVGAYNFVSWYQHHPGKAPKLIIYDFNKRPSGVPDRFSGSKSGNTASLTVSGLQADDEADYYCSSYAGSNNFDVVFGGGTKLTVL
B6: Ab_16 scFv-Fc (scFv, V domains shown)
VH: QVQLVQSGGGVVQPGRSLRLSCAASGFTFSNYGMHWVRQAPGKGLEWVALIWERGSKKDYADSVKGRFTVSRDNSKNTLYLQMNSLRPEDTAVYFCAREGISMTGAEYFQHWGQGTLVTVSS
VL: QSVLTQPPSVSGSPGQRVTMSCTGSSSNIGAGYDVHWYQQVPGAAPRLLIYGTNNRPSGVPDRFSGSKSGTSASLTITGLQAEDEADYYCQSYDNSLTDPYVFGTGTKVTVL
B7: Ab_17 scFv-Fc (scFv, V domains shown)
VH: QVQLVQSGGGVVQPGRSLRLSCAASGFTFDDYAMHWVRQVPGKGLEWVSGIDWNSGVIGYADSVKGRFTISRDNVKNSLYLQMNSLRTEDSALYYCAKDIGPGGSGSYYAFDIWGQGTTVTVSS
VL: QSALTQPASVSGSPGQSITISCTGTSSDVGGSKYVSWYQQHPGKAPKVMIYDVTKRPSGVPDRFSGSKSGNTASLTISGLQAEDEADYYCAAWDDSLNGVVFGGGTKLTVL
B8: Ab_18 scFv-Fc (scFv, V domains shown)
VH: EVQLVQSGGGVVQPGRSLRVSCAASGFSFSRYGMHWVRQAPGKGLEWVAFIRHDGSKKYYADSVEGRFTISRDNSRNTVSLEMNSLRGEDTAVYYCAKDGRLEAALDDWGQGTLVTVSS
VL: NFMLTQPHSMSGSAGKTVTVSCIRSSGSIANNFVQWYQQRPGSAPTTVIYEDNQRPSGVPDRFSGSIDSSSNSASLTISGLKTEDEADYYCQSYDSSNLVFGGGTRLTVL
B9: Ab_19 scFv-Fc (scFv, V domains shown)
VH: EVQLVESGAEVKKPGESLKISCKGSGYSFTSYWIGWVRQMPGKGLEWMGIIYPGDSDTRYSPSFQGQVTISADKSISTAYLQWSSLKASDTAMYYCARRGDLDAFDIWGQGTMVTVSS
VL: QPGLTQPPAASGTPGQRVTVSCSGASANIGSNAVSWFKQFPETAPRLLISGNTHRPSGVPDRVSGSKSGTSASLTISGLQSDDEADYYCAAWDDSLNGYVFGSGTKVTVL
B10: Ab_20 scFv-Fc (scFv, V domains shown)
VH: QVQLVQSGGGSVKPGGSLRLSCAASGYRLSDYYMHWVRQAPGKGLEWVANIKQDGSEKYYVDSVKGRFTISRDNAKNSLYLQMNSLRAEDTAVYYCARVRGWSRGYFDYWGQGTLVTVSS
VL: NFMLTQPHSVSESPGKTVTISCTGSSGSIASNYVQWYQQRPGSAPTTVIYEDNQRPSGVPDRFSGSIDSSSNSASLLISGLKTEDEADYYCQSYDSSNHWVFGGGTKLTVL
B11: Ab_21 scFv-Fc (scFv, V domains shown)
VH: QVQLVQSGGGLVQPGGSLRLSCATSGFTFDDYAMHWVRQAPGKGLEWVSGISWNSGSIGYVDSVKGRFTISRDNRNNKVYLQMNNLRAEDTAVYYCARDWWGSIDHWGLGTLVTVSS
VL: QSALTQPRSVSGSPGQSVTISCTGTSSDVGGYDYVSWYQQHPGKAPKLIIYDVSKRPSGVPDRFSGSKSGNTASLTVSGLQAEDEADYYCSSYTSSSPVVFGGGTKLTVL
B12: Ab_23 scFv-Fc (scFv, V domains shown)
VH: EVQLVQSGAEVKKPGSSVKVSCRSSGGTFSTYGITWVRQAPGQGLEWMGRIIPSLGIPNYAQKFQGRVTITADTSVSTAWMELSSLESDDTAIYYCARENIDLATNDFWGQGTLVTVSS
VL: QSALTQPPSASGSPGQSVTISCTGTSRDIGAYGYVSWYQQVPGKAPKLIIYEVRNRPSGVSSRFSGSKSGNTASLTISGLQAEDEADYYCSSYTSSSTLDVVFGGGTKLTVL
B13: Ab_25 scFv-Fc (scFv, V domains shown)
VH: QVQLVQSGGGLVQPGGSLRLSCAASGFTFSSYWMSWVRQAPGKGLEWVANIKQDGSEKYYVDSVKGRFTISRDNAKNSLYLQMNSLRAEDTAVYYCARGFYYYGAFDIWGQGTTVTVSS
VL: NFMLTQPHSVSESPGKTVTISCTGSSGSIASNYVQWYQQRPGSAPTTVIYEDNQRPSGVPDRFSGSIGSSSNSASLTISGLKTEDEADYYCQSYDSSNHWVFGGGTKLTVL
B14: Ab_26 scFv-Fc (scFv, V domains shown)
VH: QVQLVQSGGGLVQPGRSLRLSCAASGFTFDDYAMHWVRQVPGKGLEWVSGIDWNSGVIGYADSVKGRFTISRDNAKNSLYLQMNSLRAEDTALYYCAKDAYSYGFLGAFDIWGQGTMVTVSS
VL: LPVLTQPPSVSVAPGQTASITCGGDNIRTKGVHWYQQKPGQAPLLVIYYASDRPSGIPERFSGSSSGNTATLTISRVEAGDEADYYCQVWDSSSDLVVFGGGTTLTVL
B15: Ab_27 scFv-Fc (scFv, V domains shown)
VH: QVQLVQSGTEVKKPGASVKVSCKASGYSFTGSHLHWVRQAPGQGLEWMGWINPDSGVINYAQKFQGRVTLTRDTSISTAYMELSGLRSDDTAVYYCARDKAIGYVWALDYWGQGTLVTVSS
VL: QSALTQPPSVSGSPGQSVTISCTGTSSDVGTYNRVSWYQQPPGKAPKLMIYEVSNRPSGVSNRFSGSKSGNTASLTISGLQAEDEADYYCSSYTRTFTYVFGTGTKVTVL
B16: Ab_28 scFv-Fc (scFv, V domains shown)
VH: QVTLKESGPGLVNPSETLSLTCTVSGASISNSFWSWIRQSPGKGLEWIGYTSYSGNSIYNPSLKSRLTMSIDTSKNQLSLNLRSLTAADTAVYYCARREWIKGHFDYWGQGTLVTVSS
VL: NFMLTQPHSVSESPGKTVTISCTGSGGSIASNYVQWYQQRPGSAPTTVIYEDNQRPSGVPDRFSGSIDSSSNSASLTISGLKTEDEADYYCQSYDSSNPVVFGGGTKLTVL
B17: S1-RBD-R3-T1-C7 Ab (Ab_29) scFv-Fc (scFv, V domains shown)
VH: QVQLQQSGPGLVKPSQTLSLTCAISGDSVSSYSDAWNWIRQSPSRGLEWLGRTYYRSKWYNDYAVSVKSRITINPDTSKNQFSLQLSSVTPEDTAVYYCAREIVATTPFRNYYYGMDVWGQGTTVTVSS
VL: NFMLTQPHSVSESPGNTVTISCTRTSGSIASNYVQWYQQRPGSSPTTVIFQDKLRPSGVPDRFSGSIDSSSNSASLTISGLKTEDEADYYCQSYDSSSLWVFGGGTKLTVL
B18: RBD-R3-E1-A5 Ab (Ab_30) scFv-Fc (scFv, V domains shown)
VH: QVQLVQSGGGVVQPGKSLRLSCTASGFTFSDFPIHWVRQAPGKGLEWVGVISYDGNIKYYGDSVKGRFTISRDNAKNSLYLQMNSLRVEDTAVYYCARGGSSFDIWGQGTTVTVSS
VL: SYELTQPPSVSEAPRQRVTISCSGSTSNIGNNAVSWYQHLPGKAPKLLIYYNERLPSGVSDRFSGSKSGTSASLAISGLRSEDEADYYCAAWDDSLSGHVVFGGGTKLTVL
B19: S1-RBD-R3-T1-B12 Ab (Ab_31) scFv-Fc (scFv, V domains shown)
VH: QVQLVQSGAEVKKPGSSVKVSCKASGGTFSSYTISWVRQAPGQGLEWMGGIIPILGTPNYAQKFQDRVAITADKSTSTAYMELSSLRSEDTAVYYCAVGSGWYSGFDYWGQGTLVTVSS
VL: NFMLTQPHSVSESPGKTVTISCTGSSGSIASNYVQWYQQRPGSAPTTVIYEDSQRPSGVPDRFSGSIDSSSNSASLTISGLKTEDEADYYCQSFHNSNPVIFGGGTKLTVL
B20: RBD-R3-E1-B3 Ab (Ab_32) scFv-Fc (scFv, V domains shown)
VH: QVQLVQSGAEVKKPGESLKISCKGSGYSFTSYWIGWVRQMPGKGLEWMGIIYPGDSDTRYSPSFQGQVTISADKSISTAYLQWSSLKASDTAMYYCARGWQWHDYWGQGTLVTVSS
VL: QTVVTQEPAVSVALGQTVRITCQGDSLRSYYASWYQQKPGQAPVLVVYDKDKRPSGIPDRFSGSTSGNTASLTITGAQAEDEADYYCNSRDRSDNHVVFGGGTKLTVL

Biological target: WT Spike (SARS-CoV-2 spike protein) (SARS-CoV-2)

Question: What does the source list for B1?
Answer: Kd: 7.86 pM; Response: 0.274

Biological target: WT Spike (SARS-CoV2)

Question: For B2, which Kd is on record?
Answer: 7.15 pM

Question: And the Response?
Answer: 0.118

Question: What does the source list for B3?
Answer: Kd: 7.85 pM; Response: 0.0672

Question: Which Kd does the source give for B4 here?
Answer: 8.55 pM

Question: And the Response?
Answer: 0.0732

Question: How did the Kd turn out when B5 was run?
Answer: 8.22 pM

Question: And the Response?
Answer: 0.313

Question: With B6 as the binder, how does the Kd read?
Answer: 11.8 pM

Question: What about the Response of the same binder?
Answer: 0.346

Question: B7 was tested. Which Kd did it give?
Answer: 6.35 pM

Question: And the Response?
Answer: 0.248

Question: For B8, which Kd is on record?
Answer: 9.07 pM

Question: What about the Response of the same binder?
Answer: 0.216

Question: B9 was tested. Which Kd did it give?
Answer: 8.9 pM

Question: What about the Response of the same binder?
Answer: 0.121

Question: B10 was tested. Which Kd did it give?
Answer: 9.01 pM

Question: And the Response?
Answer: 0.0985

Question: How did the Kd turn out when B11 was run?
Answer: 9.25 pM

Question: What about the Response of the same binder?
Answer: 0.147

Question: Which Kd does the source give for B12 here?
Answer: 8.84 pM

Question: What about the Response of the same binder?
Answer: 0.0845

Question: What does the source list for B13?
Answer: Kd: 8.9 pM; Response: 0.0219

Question: For B14, which Kd is on record?
Answer: 11 pM

Question: And the Response?
Answer: 0.185

Question: How did the Kd turn out when B15 was run?
Answer: 8.78 pM

Question: And the Response?
Answer: 0.202

Question: Which Kd does the source give for B16 here?
Answer: 8.9 pM

Question: And the Response?
Answer: 0.132

Question: How did the Kd turn out when B17 was run?
Answer: 149 pM

Question: And the Response?
Answer: 0.126

Question: With B18 as the binder, how does the Kd read?
Answer: 1.02 pM

Question: What about the Response of the same binder?
Answer: 0.107

Question: How did the Kd turn out when B19 was run?
Answer: < 1 pM

Question: What about the Response of the same binder?
Answer: 0.101

Question: What does the source list for B20?
Answer: Kd: 6.32 pM; Response: 0.131
